Our source for the Kd values is paper PMC3341331 (PLoS Neglected Tropical Diseases, 2012).

For this assay, the target named is recombinant E protein domain III of DENV-2, flag and hexahistidine tagged (Dengue virus type 2, strain 16681 …, UniProt P29990). Kind of assay: SPR. To be noted: both partners purified.

B1: humanized DB32-6 monoclonal antibody (antibody, V domains shown)
VH: EVQLQQSGAELVKPGASVNLSCTASGFNIKDTYIHWVKQRPEQGLEWIGRIDPENGNAKYDPNFQAKATIAADTSSNTAYLQLSSLTSEDTAVYYCVRTGSFWYFDVWGQGTLVTVSS
VL: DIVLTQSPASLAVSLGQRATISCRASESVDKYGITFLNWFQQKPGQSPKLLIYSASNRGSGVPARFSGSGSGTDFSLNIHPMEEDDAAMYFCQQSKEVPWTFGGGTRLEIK
In the case of B1, the Kd (in general, the constant that tells how readily two partners part at equilibrium) came out at 0.18 nM.
